We go through 2 substances from patent publication US20140287433A1.

Experiment [1] deals with VAMPtide (o-Abz/Dnp) (List Biological Laboratories, Inc.). Put plainly: cell-based or functional assay.
Experiment [2] addresses PL150 (Pharmaleads): [(Ac-60-94)VAMP](Pya74,Nop77). In words: cell-based or functional assay.
The target in experiment [3] is GST-Synaptotagmin II (SytII) fusion protein (rat).

On to “BoNT/B complex from C. botulinum strain Okra B (Metabiologics Inc.) (from UniProt B1INP5 2-1291)”, for which, in experiment [1], the limit of detection of the toxin by VAMPtide cleavage is 5 nM.

Regarding “purified 150 kDa BoNT/B from C. botulinum strain Okra B (Metabiologics Inc.)”, the lowest toxin concentration detected by substrate cleavage (fluorescence) in experiment [2] was found to be 10 pM. Besides, in experiment [1], the limit of detection of the toxin by VAMPtide cleavage was 2 nM and the lowest toxin concentration detected by substrate cleavage (fluorescence) turned out to be 2 nM. The substance further gave an increase of binding at pH 5.2 against pH 7.2 in experiment [3] of 100%.
